Results as given in paper PMC8424217 (The Journal of Biological Chemistry, 2021).
* marks the point of attachment. Palmitoyl = CCCCCCCCCCCCCCCC(=O)*

T1: rat thoracic aorta rings (Rattus norvegicus, UniProt P49684)
T1 sequence (P49684 1-386): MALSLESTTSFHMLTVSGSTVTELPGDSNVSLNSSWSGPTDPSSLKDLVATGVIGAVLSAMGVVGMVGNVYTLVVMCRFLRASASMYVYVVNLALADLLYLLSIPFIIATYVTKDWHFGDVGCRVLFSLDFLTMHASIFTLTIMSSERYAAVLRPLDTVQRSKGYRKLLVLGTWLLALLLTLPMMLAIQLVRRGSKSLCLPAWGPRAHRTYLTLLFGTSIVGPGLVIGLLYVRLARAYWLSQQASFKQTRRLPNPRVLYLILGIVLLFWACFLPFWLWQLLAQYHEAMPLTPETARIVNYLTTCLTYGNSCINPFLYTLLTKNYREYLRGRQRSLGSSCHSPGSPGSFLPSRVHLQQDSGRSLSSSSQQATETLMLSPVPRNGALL

T2: human urotensin II receptor, on HEK 293 cells stably expressing it (human) (UniProt Q9UKP6)
T2 sequence: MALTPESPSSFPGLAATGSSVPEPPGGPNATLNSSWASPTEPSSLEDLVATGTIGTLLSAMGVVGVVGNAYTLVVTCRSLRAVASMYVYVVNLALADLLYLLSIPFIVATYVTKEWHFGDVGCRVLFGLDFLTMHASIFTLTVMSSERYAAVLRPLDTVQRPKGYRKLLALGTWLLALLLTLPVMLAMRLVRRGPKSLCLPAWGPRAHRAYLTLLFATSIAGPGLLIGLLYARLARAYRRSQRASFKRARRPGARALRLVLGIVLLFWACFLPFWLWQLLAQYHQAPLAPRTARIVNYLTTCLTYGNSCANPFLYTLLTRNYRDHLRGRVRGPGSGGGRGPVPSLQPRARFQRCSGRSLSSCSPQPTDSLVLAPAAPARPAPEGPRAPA

T3: human urotensin II receptor, on CHO-K1 cells stably expressing it (human) (UniProt Q9UKP6)
T3 sequence: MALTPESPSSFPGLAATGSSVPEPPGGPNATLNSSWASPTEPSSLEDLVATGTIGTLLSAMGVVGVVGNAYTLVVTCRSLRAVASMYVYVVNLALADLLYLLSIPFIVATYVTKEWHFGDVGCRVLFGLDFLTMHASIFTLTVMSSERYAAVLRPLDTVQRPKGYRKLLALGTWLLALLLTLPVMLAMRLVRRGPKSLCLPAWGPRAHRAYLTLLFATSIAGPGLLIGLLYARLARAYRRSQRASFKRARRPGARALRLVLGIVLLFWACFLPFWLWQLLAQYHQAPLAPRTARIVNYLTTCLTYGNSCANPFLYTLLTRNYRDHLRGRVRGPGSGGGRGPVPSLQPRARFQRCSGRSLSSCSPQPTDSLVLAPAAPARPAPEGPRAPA


Experiments:
[1] = target: T1, rat thoracic aorta rings; experiment: Rat aortic ring contraction (agonist); settings: mean ± SEM
Procedure: (§1) Each replicate (n) was conducted on tissue obtained from at least three different animals. Data represent mean ± SEM.
(§2) Adult male Sprague-Dawley rats (Charles-River) weighing 250–300 g were housed in cages under controlled illumination (12:12 h light–dark cycle), humidity, and temperature (21–23 °C) and had free access to tap water and rat chow. All experimental procedures were performed in accordance with regulations and ethical guidelines from the Canadian Council for the Care of Laboratory Animals and received approvals of the institutional animal care and use committee of the Institut National de la Recherche Scientifique—Centre Armand-Frappier Santé Biotechnologie. As previously described ([17], [18]), the thoracic aorta was cleared of surrounding tissue and then excised from the aortic arch to the diaphragm. Conjunctive tissues were next removed from the thoracic aorta and the vessels were divided into five rings of 4 mm. The endothelium of each aortic ring was removed by gently rubbing the vessel intimal surface. Aortic rings were then placed in a 5 ml organ bath filled with oxygenated normal Krebs–Henseleit buffer. Eighty microliters of a 2.5 M potassium chloride solution (40 mM final concentration) was used to evaluate maximal contractile responses of each vessel. […] Cumulative concentration–response curves to synthetic peptides were obtained by increasing the concentration of each peptide in the remaining organ chambers (10^−11–10^−5 M).

[2] = target: T1, rat thoracic aorta rings; experiment: Modulation of URP-mediated rat aortic ring contraction; settings: URP alone, percentage of KCl (40 mM) contraction divided by tissue response to URP (10^−6 M), mean ± SEM, n = 22, read-out: URP-mediated contraction Emax, control (no pretreatment)
Procedure: as §1, §2

[3] = target: T2, human urotensin II receptor, on HEK 293 cells stably expressing it (human)
[4] = target: T3, human urotensin II receptor, on CHO-K1 cells stably expressing it (human)
[5] = target: T3, human urotensin II receptor, on CHO-K1 cells stably expressing it (human); remark: listed apart in the source
[6] = scale: % of the activation induced by hUII

| Molecule | contraction pEC50 ([1]; n = 22 (hUII, URP), n = 5 (pepducins)) | Emax ([1]; percentage of contraction induced by 40 mM KCl, n = 22) [%] | Emax [2] [%] | G13 activation (BRET biosensor), HEK 293-hUT cells; pEC50 [3] | Gi activation (BRET biosensor), HEK 293-hUT cells; pEC50 [3] | Gq activation (BRET biosensor), HEK 293-hUT cells; pEC50 [3] | G13 activation (BRET biosensor), HEK 293-hUT cells; Emax [3, 6] | Gi activation (BRET biosensor), HEK 293-hUT cells; Emax [3, 6] | Gq activation (BRET biosensor), HEK 293-hUT cells; Emax [3, 6] | β-arrestin 2 conformational change (BRET biosensor), HEK 293-hUT cells; maximum efficacy at 10^-6 M [3, 6] | IP1 production (IP-One terbium immunoassay), CHO-hUT cells, 40 min; efficacy at 10^-5 M (% of the hUII maximum effect) [4] | IP1 production (IP-One terbium immunoassay), CHO-hUT cells, 40 min; pEC50 [4] | ERK1/2 phosphorylation (western blot), CHO-hUT cells, 5 min; Emax (% of the hUII maximum effect) [5] | ERK1/2 phosphorylation (western blot), CHO-hUT cells, 5 min; pEC50 [5] | β-arrestin 1 conformational change (BRET biosensor), HEK 293-hUT cells; pEC50 [3] | β-arrestin 2 conformational change (BRET biosensor), HEK 293-hUT cells; pEC50 [3] | G12 activation (BRET biosensor), HEK 293-hUT cells; maximum efficacy at 10^-6 M [3, 6] | β-arrestin 1 conformational change (BRET biosensor), HEK 293-hUT cells; Emax [3, 6] | β-arrestin 2 conformational change (BRET biosensor), HEK 293-hUT cells; Emax [3, 6] |
| --- | --- | --- | --- | --- | --- | --- | --- | --- | --- | --- | --- | --- | --- | --- | --- | --- | --- | --- | --- |
| CC(C)[C@H](NC(=O)[C@@H]1CSSC[C@H](NC(=O)[C@H](C)N)C(=O)N[C@@H](Cc2ccccc2)C(=O)N[C@@H](Cc2c[nH]c3ccccc23)C(=O)N[C@@H](CCCCN)C(=O)N[C@@H](Cc2ccc(O)cc2)C(=O)N1)C(=O)O [URP, urotensin II-related peptide, reference compound] | 8.10 ± 0.06 | 108 ± 3 | 105 ± 3 |  |  |  |  |  |  |  |  |  |  |  |  |  |  |  |  |
| Palmitoyl-RPLDTVQRPKGY-NH2 (SMILES CCCCCCCCCCCCCCCC(=O)N[C@@H](CCCNC(=N)N)C(=O)N1CCC[C@H]1C(=O)N[C@@H](CC(C)C)C(=O)N[C@@H](CC(=O)O)C(=O)N[C@H](C(=O)N[C@H](C(=O)N[C@@H](CCC(N)=O)C(=O)N[C@@H](CCCNC(=N)N)C(=O)N1CCC[C@H]1C(=O)N[C@@H](CCCCN)C(=O)NCC(=O)N[C@@H](Cc1ccc(O)cc1)C(N)=O)C(C)C)[C@@H](C)O) [hUT-Pep2] |  |  |  | 6.33 -log EC50 | 10.1 -log EC50 | 7.31 -log EC50 | 154 | 96 | 9 | 15 | 35 | < 6 -log EC50 | 34 | 7.26 -log EC50 |  |  |  |  |  |
| Palmitoyl-WLSQRASFKRARR-NH2 (SMILES CCCCCCCCCCCCCCCC(=O)N[C@@H](Cc1c[nH]c2ccccc12)C(=O)N[C@@H](CC(C)C)C(=O)N[C@@H](CO)C(=O)N[C@@H](CCC(N)=O)C(=O)N[C@@H](CCCNC(=N)N)C(=O)N[C@@H](C)C(=O)N[C@@H](CO)C(=O)N[C@@H](Cc1ccccc1)C(=O)N[C@@H](CCCCN)C(=O)N[C@@H](CCCNC(=N)N)C(=O)N[C@@H](C)C(=O)N[C@@H](CCCNC(=N)N)C(=O)N[C@@H](CCCNC(=N)N)C(N)=O) [[Trp^1, Leu^2]hUT-Pep3] |  |  |  | 6.51 -log EC50 | 10.4 -log EC50 | 8.34 -log EC50 | 185 | 97 | 29 |  | 60 | < 6 -log EC50 | 56 | 6.7 -log EC50 | 8.08 -log EC50 | 7.74 -log EC50 | 5 | 18 | 19 |
